Where “and” joins values, the source holds several entries; their conditions need not be identical. Identical values can stand only once. Like-named read-outs stand apart in the source and are kept apart here. Marks after values point to notes of the source that are not given here.
Assays:
[1] = Activity of crude culture supernatants from bioreactor; assay type: biochemical; conditions: pNP-dodecanoate
[2] = Specific activity of purified enzymes (standard esterase assay); assay type: biochemical
Experimental: In summary, using different techniques for enzyme purification, pure enzyme preparations were obtained and tested for their activity towards a standard esterase substrate, pNP-palmitate. Enzymatic activities of the purified variants are summarized below:
(§1) Esterase activity was determined by monitoring the formation of para-nitrophenol (pNP) at 410 nm from various pNP-esters using a Beckman UV spectrophotometer (model DU 640). Substrates were completely dissolved in 2-propanol (8 mM) and were then added to 50 mM Tris/HCl buffer pH 8.0 to give a final substrate concentration of 0.8 mM. The reaction (1 mL) was started by adding an appropriate amount of enzyme. One enzyme unit (U) was defined as the amount of enzyme that produced 1 μmol of product (pNP) per min; specific activity was expressed as U/mg protein. A molar extinction coefficient of 15 mM^−1 cm^−1 was used for the calculation.

[3] = Enzyme substrate profiles, esterase assays; assay type: biochemical; conditions: highest activity towards a specific substrate set to 100%
Experimental: as §1

[4] = Temperature optimum; assay type: biochemical; conditions: for Relative activity at temperature: highest activity set to 100%
Experimental: For estimation of the temperature optimum, buffer containing pNP-palmitate (see esterase assay in Example 20.1) was pre-incubated to reach the desired temperature, enzyme was then added, and the formation of pNP was assayed. For this experiment, Tris/HCl buffer was replaced with sodium phosphate buffer (50 mM, pH 8.0) to avoid a pH shift at the different temperatures.

[5] = Enzymatic activity in the presence of organic solvents; assay type: biochemical; conditions: buffer only = 100%
Experimental: Enzyme activity in various organic solvents was studied over a concentration range of 1-30% at room temperature. pNP-palmitate was completely dissolved in 2-propanol (8 mM) and then added to 50 mM Tris/HCl buffer pH 8.0 containing up to 30% organic solvent to give a final substrate concentration of 0.8 mM. The reaction was started by addition of enzyme and the formation of pNP was assayed as described above in Example 20.1.

[6] = pH dependence of enzymes; assay type: biochemical; conditions: for Relative activity (%): highest activity = 100%
Experimental: The influence of different pH values (from 5.5 to 11) on the activities of the purified enzymes was examined in three buffer systems (sodium acetate, sodium phosphate, and Tris-HCl) at room temperature using pNP-palmitate (see esterase assay in Example 20.1) as a substrate at a final substrate concentration of 0.8 mM.

[7] = Stability in the presence of hydrogen peroxide; assay type: physicochemical
Experimental: as §1
Purified cutinases were incubated at room temperature in the presence of 0, 30, 100, 300, 1500, and 3000 ppm of hydrogen peroxide. Residual enzyme activity was assayed (see Example 20.1) after 1, 2, 3, and 7 days of incubation.

[8] = assay type: biochemical, Petromyces albertensis; conditions: for Residual ochratoxin A (%): 5 ppm Ochratoxin A, 37° C., relative to incubation without enzyme
Experimental: The enzymes purified in Example 18 were tested for their ability to degrade the mycotoxin Ochratoxin A. In general, the mycotoxin was incubated with different concentrations of the enzyme, and the remaining mycotoxin concentration, as well the respective degradation products, were monitored by LC-MS over time (where possible/applicable).
Reactions were performed in 1 mL volumes in glass HPLC vials comprising the mycotoxin to be analyzed and the enzyme to be tested. For Ochratoxin A (Petromyces albertensis, 01877 Sigma), 50 μL of a 100 ppm stock solution in methanol (final concentration of 5 ppm) was added to 910 μL of distilled water and 40 μL of the enzyme to be tested. In control reactions, the volume of enzyme was substituted with distilled water. The reactions were incubated in an Eppendorf thermomixer at 37° C. with shaking at 750 rpm. 100 μL samples were withdrawn at 1, 4 and 24 h for chromatographic analysis.
Mycotoxin analysis was carried out using a Shimadzu LCMS-2020 equipped with a UV/vis detector. Chromatographic separation of 10 μL injected sample was carried out at 30° C. on a Kinetex 2.6 μm XB-C18 column 100 Å (50×2.1 mm) using a binary gradient. For Ochratoxin A, eluent A consisted of water and eluent B consisted of acetonitrile and the UV detection wavelength was 360 nm.
The five enzymes tested were screened for their ability to degrade 5 ppm (5,000 ppb) Ochratoxin A at 37° C.

B1: CfCUT: mature wild-type cutinase from Cellulomonas flavigena, SEQ ID NO: 28 (protein, listed as Cellulomonas flavigena)
chain: APACPDVELVFARGTGEAAGLGIVGRPLERALAAELPGRTVVATAVDYAASSSQASAGPGSGDMVAKVRSRAAACPGTQFVLGGYSQGATVTDLALGIRTGVTAGTALPEDLAARVAAVVVYGNPLGLTRRTIAQAAPAFATRTVEYCNAGDPVCEPGGGRFTAHITYATNGTVLEGARFAAARVTAPAPTPTPGPTGTPAPVPSAEPTPAPGDTCVTASSLQHVRDGRAYPLWMRTYARGSGDPLGVLSSRTVVSLQADGTDTWRKVAAC
activity of crude culture supernatant [1]: 0.5 U/mL | Enzymatic activity of the purified variant ([2]; pNP-palmitate): 26 ± 1 U/mg | Spec. Act. (U/mg) ([2]; towards pNP-palmitate (standard assay)): 26 ± 1 U/mg | Relative activity, pNP-acetate (C2) [3]: 6% | Relative activity, pNP-butyrate (C4) [3]: 93 ± 8% | Relative activity, pNP-caprylate (C8) [3]: 11 ± 2% | Relative activity, pNP-decanoate (C10) [3]: 40 ± 5% | Relative activity, pNP-myristate (C14) [3]: 47 ± 8% | Relative activity, pNP-palmitate (C16) [3]: 100* % | Temp. opt. (° C.) [4]: 25 °C | Relative activity at temperature ([4]; 20 ° C.): 69 ± 2% | Relative activity at temperature ([4]; 25 ° C.): 100* % | Relative activity at temperature ([4]; 30 ° C.): 63 ± 7% | Relative activity at temperature ([4]; 35 ° C.): 45 ± 5% | Relative activity at temperature ([4]; 40 ° C.): 38 ± 8% | Relative activity at temperature ([4]; 45 ° C.): 1% | Relative enzymatic activity (%) ([5]; 2-Propanol 5% (v/v)): 70 ± 3% | Relative enzymatic activity (%) ([5]; 2-Propanol 10% (v/v)): 17 ± 8% | Relative enzymatic activity (%) ([5]; Acetone 1% (v/v)): 92 ± 9% | Relative enzymatic activity (%) ([5]; Acetone 5% (v/v)): 95 ± 1% | Relative enzymatic activity (%) ([5]; Acetone 10% (v/v)): 52 ± 5% | Relative enzymatic activity (%) ([5]; Dimethyl sulfoxide (DMSO) 10% (v/v)): 105 ± 11% | Relative enzymatic activity (%) ([5]; Dimethyl sulfoxide (DMSO) 20% (v/v)): 107 ± 1% | Relative enzymatic activity (%) ([5]; Dimethyl sulfoxide (DMSO) 30% (v/v)): 57 ± 15% | Relative enzymatic activity (%) ([5]; Dimethylformamide (DMF) 5% (v/v)): 101 ± 17% | Relative enzymatic activity (%) ([5]; Methanol 10% (v/v)): 115 ± 11% | Relative enzymatic activity (%) ([5]; Methanol 20% (v/v)): 62 ± 3% | pH opt. [6]: 9.5 | Relative activity (%) ([6]; pH 6.5, sodium phosphate buffer): 13 ± 2% | Relative activity (%) ([6]; pH 7.0, sodium phosphate buffer): 40 ± 4% | Relative activity (%) ([6]; pH 7.5, sodium phosphate buffer): 65 ± 5% | Relative activity (%) ([6]; pH 8.0, Tris/HCl): 62 ± 2% | Relative activity (%) ([6]; pH 8.5, Tris/HCl): 85 ± 6% | Relative activity (%) ([6]; pH 9.0, Tris/HCl): 93 ± 9% | Relative activity (%) ([6]; pH 9.5, Tris/HCl): 100* % | Relative activity (%) ([6]; pH 10, Tris/HCl): 31 ± 1% | Relative activity (%) after exposure to hydrogen peroxide ([7]; H2O2 30 ppm, Day 0): 101 ± 22% | Relative activity (%) after exposure to hydrogen peroxide ([7]; H2O2 30 ppm, Day 1): 89 ± 8% | Relative activity (%) after exposure to hydrogen peroxide ([7]; H2O2 30 ppm, Day 2): 82 ± 8% | Relative activity (%) after exposure to hydrogen peroxide ([7]; H2O2 30 ppm, Day 3): 76 ± 6% | Relative activity (%) after exposure to hydrogen peroxide ([7]; H2O2 30 ppm, Day 7): 72 ± 7% | Relative activity (%) after exposure to hydrogen peroxide ([7]; H2O2 100 ppm, Day 0): 92 ± 5% | Relative activity (%) after exposure to hydrogen peroxide ([7]; H2O2 100 ppm, Day 1): 114 ± 15% | Relative activity (%) after exposure to hydrogen peroxide ([7]; H2O2 100 ppm, Day 2): 118 ± 15% | Relative activity (%) after exposure to hydrogen peroxide ([7]; H2O2 100 ppm, Day 3): 92 ± 11% | Relative activity (%) after exposure to hydrogen peroxide ([7]; H2O2 100 ppm, Day 7): 94 ± 7% | Relative activity (%) after exposure to hydrogen peroxide ([7]; H2O2 300 ppm, Day 0): 93 ± 12% | Relative activity (%) after exposure to hydrogen peroxide ([7]; H2O2 300 ppm, Day 1): 106 ± 20% | Relative activity (%) after exposure to hydrogen peroxide ([7]; H2O2 300 ppm, Day 2): 118 ± 12% | Relative activity (%) after exposure to hydrogen peroxide ([7]; H2O2 300 ppm, Day 3): 102 ± 14% | Relative activity (%) after exposure to hydrogen peroxide ([7]; H2O2 300 ppm, Day 7): 106 ± 13% | Relative activity (%) after exposure to hydrogen peroxide ([7]; H2O2 1,500 ppm, Day 0): 126 ± 1% | Relative activity (%) after exposure to hydrogen peroxide ([7]; H2O2 1,500 ppm, Day 1): 106 ± 12% | Relative activity (%) after exposure to hydrogen peroxide ([7]; H2O2 1,500 ppm, Day 2): 109 ± 2% | Relative activity (%) after exposure to hydrogen peroxide ([7]; H2O2 1,500 ppm, Day 3): 95 ± 4% | Relative activity (%) after exposure to hydrogen peroxide ([7]; H2O2 1,500 ppm, Day 7): 54 ± 16% | Relative activity (%) after exposure to hydrogen peroxide ([7]; H2O2 3,000 ppm, Day 0): 128% and 128 ± 18% | Relative activity (%) after exposure to hydrogen peroxide ([7]; H2O2 3,000 ppm, Day 1): 115 ± 2% | Relative activity (%) after exposure to hydrogen peroxide ([7]; H2O2 3,000 ppm, Day 2): 99 ± 23% | Relative activity (%) after exposure to hydrogen peroxide ([7]; H2O2 3,000 ppm, Day 3): 60 ± 6% | Relative activity (%) after exposure to hydrogen peroxide ([7]; H2O2 3,000 ppm, Day 7): 35% and 35 ± 1% | Residual ochratoxin A (%) ([8]; 1 h): 11% | Residual ochratoxin A (%) ([8]; 4 h): 2% | Residual ochratoxin A (%) ([8]; 24 h): 0% | Ochratoxin A Degradation per U and h ([8]; per 1 U of enzyme (pNP standard test) and hour at 37° C.): 3 µmol

— patent publication US10227575B2, “Multi-domain enzymes having cutinase activity, compositions comprising same and uses thereof” (OZYMES, priority 2015, dated 2019)
